From patent publication US20090028788A1 (WASHINGTON UNIVERSITY IN ST LOUIS, published 2009)
Bridges are numbered along the chain shown (N, C = ends). Primed or numbered codes have the meaning given here. [ ]: non-standard residue; d: D form. The star is where a group is joined. DTPA = O=C(O)CN(CCN(CC(=O)O)CC(=O)O)CCN(CC(=O)O)CC(=O)*; Cypate′ = NIR carbocyanine dye; Ahx = NCCCCCC(=O)O; βAla = NCCC(=O)O

B1: H-B-Ala-Asp-Cys-Arg-Gly-Asp-Cys(Et)-Phe-Val-OH (peptide)
peptide: H-[βAla]DCRGDC(Et)FV-OH
SMILES: CCSC[C@H](NC(=O)[C@H](CC(=O)O)NC(=O)CNC(=O)[C@H](CCCNC(=N)N)NC(=O)[C@H](CS)NC(=O)[C@H](CC(=O)O)NC(=O)CCN)C(=O)N[C@@H](Cc1ccccc1)C(=O)N[C@H](C(=O)O)C(C)C
B2: DTPA-His-Asp-Cys(Et)-Arg-Gly-Asp-Cys(Et)-Phe-Lys-OH (peptide)
peptide: {DTPA}-HDC(Et)RGDC(Et)FK-OH
SMILES: CCSC[C@H](NC(=O)[C@H](CC(=O)O)NC(=O)CNC(=O)[C@H](CCCNC(=N)N)NC(=O)[C@H](CSCC)NC(=O)[C@H](CC(=O)O)NC(=O)[C@H](Cc1c[nH]cn1)NC(=O)CN(CCN(CCN(CC(=O)O)CC(=O)O)CC(=O)O)CC(=O)O)C(=O)N[C@@H](Cc1ccccc1)C(=O)N[C@@H](CCCCN)C(=O)O
B3: Cyclo(Arg-Gly-Asp-DPhe-Asp)-EAhx-Lys-OH (peptide)
peptide: RGD[dF]D[Ahx]K-OH
modifications: lactam N-5; also: cyclo Arg1-Asp5: which Asp5 carboxyl (side chain or α) closes ring not given here
B4: Cyclo(DPhe-Val-Lys-Arg-Gly-Asp)-OH (peptide)
peptide: XVKRGD
HELM: PEPTIDE1{[dF].V.K.R.G.D}$PEPTIDE1,PEPTIDE1,1:R1-6:R2$$$V2.0
SMILES: CC(C)[C@@H]1NC(=O)[C@@H](Cc2ccccc2)NC(=O)[C@H](CC(=O)O)NC(=O)CNC(=O)[C@H](CCCNC(=N)N)NC(=O)[C@H](CCCCN)NC1=O
B5: DTPA-Val-Arg-Gly-Asp-DPhe-Cyclo(Cys-Tyr-DTrp-Lys-Thr-Cys)-Thr-NH2 (peptide)
peptide: VRGDXCYXKTCT
HELM: PEPTIDE1{[O=C(O)CN(CCN(CC(=O)O)CC(=O)O)CCN(CC(=O)O)CC(=O)[*:2]].V.R.G.D.[dF].C.Y.[dW].K.T.C.T.[am]}$PEPTIDE1,PEPTIDE1,7:R3-12:R3$$$V2.0
SMILES: CC(C)[C@H](NC(=O)CN(CCN(CCN(CC(=O)O)CC(=O)O)CC(=O)O)CC(=O)O)C(=O)N[C@@H](CCCNC(=N)N)C(=O)NCC(=O)N[C@@H](CC(=O)O)C(=O)N[C@H](Cc1ccccc1)C(=O)N[C@H]1CSSC[C@@H](C(=O)N[C@H](C(N)=O)[C@@H](C)O)NC(=O)[C@H]([C@@H](C)O)NC(=O)[C@H](CCCCN)NC(=O)[C@@H](Cc2c[nH]c3ccccc23)NC(=O)[C@H](Cc2ccc(O)cc2)NC1=O
B6: Cyclo(Arg-Gly-Asp-DPhe-Asp)-Lys-NH2 (peptide)
peptide: RGD[dF]DK-NH2
modifications: lactam N-5; also: cyclo Arg1-Asp5: which Asp5 carboxyl (side chain or α) closes ring not given here

Molecular target: T1, purified human αvβ3 integrin protein (human, UniProt P06756 31-1048; P05106 27-788)
T1 construct: Bought heterodimer; also called ABI; purified αvβ3 integrin
T1 sequence (P06756 31-1048, form in doubt, chain 1 of 2): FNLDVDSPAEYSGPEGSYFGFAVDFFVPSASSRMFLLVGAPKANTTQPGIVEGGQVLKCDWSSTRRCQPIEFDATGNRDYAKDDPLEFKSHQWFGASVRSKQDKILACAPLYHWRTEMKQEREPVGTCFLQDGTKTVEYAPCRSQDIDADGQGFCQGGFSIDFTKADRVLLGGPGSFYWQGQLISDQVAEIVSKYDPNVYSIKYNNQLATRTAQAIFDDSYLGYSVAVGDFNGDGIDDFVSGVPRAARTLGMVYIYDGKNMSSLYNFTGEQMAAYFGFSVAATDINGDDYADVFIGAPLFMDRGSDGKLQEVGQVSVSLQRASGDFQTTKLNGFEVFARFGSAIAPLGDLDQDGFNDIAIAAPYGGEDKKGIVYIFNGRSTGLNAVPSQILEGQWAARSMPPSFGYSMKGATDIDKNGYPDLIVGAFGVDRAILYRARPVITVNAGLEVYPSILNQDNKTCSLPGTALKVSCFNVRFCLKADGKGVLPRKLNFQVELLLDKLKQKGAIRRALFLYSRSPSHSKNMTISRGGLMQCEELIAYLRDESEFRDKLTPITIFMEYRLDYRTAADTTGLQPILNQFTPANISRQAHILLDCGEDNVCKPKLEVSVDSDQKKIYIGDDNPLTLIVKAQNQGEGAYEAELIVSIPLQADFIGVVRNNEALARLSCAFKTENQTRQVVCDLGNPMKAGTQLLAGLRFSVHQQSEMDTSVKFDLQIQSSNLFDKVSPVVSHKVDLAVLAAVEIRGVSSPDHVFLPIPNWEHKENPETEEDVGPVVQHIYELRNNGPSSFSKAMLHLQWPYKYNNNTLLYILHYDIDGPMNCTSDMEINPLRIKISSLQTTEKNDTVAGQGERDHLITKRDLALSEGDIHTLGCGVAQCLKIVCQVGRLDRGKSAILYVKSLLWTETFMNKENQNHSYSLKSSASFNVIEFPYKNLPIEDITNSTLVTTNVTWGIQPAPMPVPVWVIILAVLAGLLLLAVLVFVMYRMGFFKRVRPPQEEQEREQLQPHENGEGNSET
T1 sequence (P05106 27-788, form in doubt, chain 2 of 2): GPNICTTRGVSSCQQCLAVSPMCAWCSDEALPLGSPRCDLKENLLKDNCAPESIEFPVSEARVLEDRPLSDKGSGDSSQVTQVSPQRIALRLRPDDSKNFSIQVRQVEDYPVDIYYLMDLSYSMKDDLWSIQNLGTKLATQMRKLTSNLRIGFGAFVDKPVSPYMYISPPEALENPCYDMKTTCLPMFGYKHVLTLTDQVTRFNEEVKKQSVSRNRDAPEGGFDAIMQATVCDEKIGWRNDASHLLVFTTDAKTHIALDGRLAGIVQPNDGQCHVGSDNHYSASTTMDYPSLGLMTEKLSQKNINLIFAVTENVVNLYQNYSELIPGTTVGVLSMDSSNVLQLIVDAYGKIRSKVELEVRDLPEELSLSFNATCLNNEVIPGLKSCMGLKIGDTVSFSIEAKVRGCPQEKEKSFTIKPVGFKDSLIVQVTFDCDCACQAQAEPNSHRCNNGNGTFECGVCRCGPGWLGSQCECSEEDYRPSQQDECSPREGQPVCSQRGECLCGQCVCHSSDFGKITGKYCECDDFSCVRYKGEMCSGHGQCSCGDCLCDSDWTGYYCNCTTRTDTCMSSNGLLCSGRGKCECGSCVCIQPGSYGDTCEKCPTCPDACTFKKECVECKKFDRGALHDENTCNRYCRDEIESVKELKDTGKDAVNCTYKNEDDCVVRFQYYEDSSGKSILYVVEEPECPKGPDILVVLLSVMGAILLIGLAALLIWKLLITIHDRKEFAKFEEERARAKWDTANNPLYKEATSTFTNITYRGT
Test: competition with 125I-echistatin on purified human αvβ3 integrin, filter plate;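 further: test ligands incubated two hours at room temperature with the integrin, bound radioactivity retained on filters measured by gamma counting, IC50 obtained through nonlinear regression fitting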
Experimental: The binding affinities were measured based on the competitive binding between purified αᵥβ₃ integrin (ABI) and peptide ligands.
Receptor binding assays were performed by using purified human αᵥβ₃ integrin protein from Chemicon International, Inc. (Temecula, Calif.). Assays were carried out using the Millipore Duropore membrane 96-well plates and the Millipore MultiScreen system (Bedford, Mass.). […] The concentration range of ligand was between 0.01 μM and 100 μM. The mixtures were incubated for 2 h at room temperature, the ABI was then filtered by centrifugation at 1500 g and washed three times with 0.20 mL of ice-cold binding buffer. The filters containing radioactivity bound ABI were removed using a punch apparatus and counted using a Packard Cobra II Auto-gamma counter (Meriden, Conn.). […] The 50% inhibitory concentrations (IC₅₀) were calculated by nonlinear regression analysis by use of the GraphPad Prism 4 computer fitting program (GraphPad Software, Inc., San Diego, Calif.).

In order of falling IC50:
1. {Cypate′}-[dF]CY[dW]KTCTVRGD-NH2 (disulfide 2-7) [Cypate-DPhe-Cyclo(Cys-Tyr-DTrp-Lys-Thr-Cys)-Thr-Val-Arg-Gly-Asp-NH2]  4420 nM
2. {Cypate′}-KRGD[dF][Ahx]-NH2 [Cypate-Lys-Arg-Gly-Asp-DPhe-EAhx-NH2]  3020 nM
3. B3  1940 nM
4. B4  1890 nM
5. B6  1740 nM
6. {DTPA}-[dF]CY[dW]KTCTVRGD-NH2 (disulfide 2-7) [DTPA-DPhe-Cyclo(Cys-Tyr-DTrp-Lys-Thr-Cys)-Thr-Val-Arg-Gly-Asp-NH2]  1110 nM
7. B2  712 nM
8. B5  584 nM
9. H-HDRGDCFK-OH [H-His-Asp-Arg-Gly-Asp-Cys-Phe-Lys-OH]  411 nM
10. B1  329 nM
11. {Cypate′}-[βAla]RGD[Ahx]RGD[Ahx]RGDSPK-OH [Cypate-BAla-Arg-Gly-Asp-EAhx-Arg-Gly-Asp-EAhx-Arg-Gly-Asp-Ser-Pro-Lys-OH]  65.6 nM
